One block for each substance: values may come before it.
Legend:
Assay in all cases: cell-based or functional assay
IR(h) (human) = IR(h) (human) (UniProt P06213)
MST2(h) (human) = MST2(h) (human) (UniProt Q13188)
ROCK-II(h) (human) = ROCK-II(h) (human) (UniProt O75116)
Flt3(h) (human) = Flt3(h) (human) (UniProt P36888)
TSSK2(h) (human) = TSSK2(h) (human) (UniProt Q96PF2)
Ab1(M351T)(h) (human) = Ab1(M351T)(h) (human) (UniProt P00519)
EGFR(L858R)(h) (human) = EGFR(L858R)(h) (human) (UniProt P00533)
GRK6(h) (human) = GRK6(h) (human) (UniProt P43250)
cKit(D816H)(h) (human) = cKit(D816H)(h) (human) (UniProt P10721)
MLCK(h) (human) = target: MLCK(h) (human)
JAK2(h) (human) = JAK2(h) (human) (UniProt O60674)
PhKγ2(h) (human) = PhKγ2(h) (human) (UniProt P15735)
Snk(h) (human) = Snk(h) (human) (UniProt Q9NYY3)
ROCK-I(h) (human) = ROCK-I(h) (human) (UniProt Q13464)
MAPK2(h) (human) = MAPK2(h) (human) (UniProt P28482)
PKD2(h) (human) = PKD2(h) (human) (UniProt Q9BZL6)
Met(Y1248H)(h) (human) = Met(Y1248H)(h) (human) (UniProt P08581)
TSSK1(h) (human) = TSSK1(h) (human) (UniProt Q9BXA7)
TSSK1(h) (human), sequence (Q9BXA7 whole entry): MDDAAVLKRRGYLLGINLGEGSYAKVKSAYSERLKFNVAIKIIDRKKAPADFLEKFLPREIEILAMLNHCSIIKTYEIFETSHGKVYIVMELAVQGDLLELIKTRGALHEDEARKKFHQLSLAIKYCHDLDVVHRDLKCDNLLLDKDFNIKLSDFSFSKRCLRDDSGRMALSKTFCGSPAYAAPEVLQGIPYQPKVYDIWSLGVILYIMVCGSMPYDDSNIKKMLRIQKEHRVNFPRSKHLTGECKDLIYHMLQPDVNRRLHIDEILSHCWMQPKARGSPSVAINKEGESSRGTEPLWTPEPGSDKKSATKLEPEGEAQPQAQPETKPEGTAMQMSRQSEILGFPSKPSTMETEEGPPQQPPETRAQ

Ab1(Q252H)(h) (human) = Ab1(Q252H)(h) (human) (UniProt P00519)
VRK2(h) (human) = VRK2(h) (human) (UniProt Q86Y07)
VRK2(h) (human), sequence (Q86Y07 whole entry): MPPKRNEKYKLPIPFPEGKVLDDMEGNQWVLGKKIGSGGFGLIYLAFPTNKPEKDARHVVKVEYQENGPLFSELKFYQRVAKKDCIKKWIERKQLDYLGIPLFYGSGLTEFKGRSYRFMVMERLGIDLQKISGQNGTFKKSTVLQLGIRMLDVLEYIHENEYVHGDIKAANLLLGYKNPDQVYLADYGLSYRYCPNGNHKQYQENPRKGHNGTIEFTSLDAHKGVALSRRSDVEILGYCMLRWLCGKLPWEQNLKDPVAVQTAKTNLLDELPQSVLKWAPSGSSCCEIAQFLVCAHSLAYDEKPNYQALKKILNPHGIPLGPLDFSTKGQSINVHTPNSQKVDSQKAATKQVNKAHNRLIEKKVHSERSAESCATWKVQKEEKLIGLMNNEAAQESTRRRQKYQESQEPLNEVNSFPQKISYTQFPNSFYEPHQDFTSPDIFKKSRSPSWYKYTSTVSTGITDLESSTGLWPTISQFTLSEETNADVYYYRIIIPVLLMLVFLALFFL

CDK5/p25(h) (human) = CDK5/p25(h) (human) (UniProt Q00535)
Src(T341M)(h) (human) = Src(T341M)(h) (human) (UniProt P12931)
DAPK1(h) (human) = DAPK1(h) (human) (UniProt P53355)
EphA3(h) (human) = EphA3(h) (human) (UniProt P29320)
PKCθ(h) (human) = PKCθ(h) (human) (UniProt Q04759)
PAK4(h) (human) = PAK4(h) (human) (UniProt O96013)
Met(M1268T)(h) (human) = Met(M1268T)(h) (human) (UniProt P08581)
Bmx(h) (human) = Bmx(h) (human) (UniProt P51813)
Bmx(h) (human), sequence (P51813 whole entry): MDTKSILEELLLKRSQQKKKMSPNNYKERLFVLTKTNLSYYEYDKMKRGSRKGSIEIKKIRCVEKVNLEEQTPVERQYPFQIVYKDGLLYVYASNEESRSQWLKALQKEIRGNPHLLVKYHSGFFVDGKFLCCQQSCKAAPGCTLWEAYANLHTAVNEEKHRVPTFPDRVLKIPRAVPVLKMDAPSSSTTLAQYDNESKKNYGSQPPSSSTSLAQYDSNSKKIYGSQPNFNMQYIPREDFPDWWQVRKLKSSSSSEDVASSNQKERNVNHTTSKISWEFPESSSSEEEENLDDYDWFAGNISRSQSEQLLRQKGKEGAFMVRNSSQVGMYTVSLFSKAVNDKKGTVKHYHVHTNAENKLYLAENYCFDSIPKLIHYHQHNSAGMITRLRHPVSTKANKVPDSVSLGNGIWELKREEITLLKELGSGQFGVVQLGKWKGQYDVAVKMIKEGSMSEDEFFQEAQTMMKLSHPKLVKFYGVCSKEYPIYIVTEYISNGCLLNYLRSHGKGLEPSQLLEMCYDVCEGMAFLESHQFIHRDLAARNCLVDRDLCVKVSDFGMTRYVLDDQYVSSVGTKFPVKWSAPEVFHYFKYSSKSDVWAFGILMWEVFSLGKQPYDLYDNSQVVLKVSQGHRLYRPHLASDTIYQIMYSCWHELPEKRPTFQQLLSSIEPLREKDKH

IRR(h) (human) = IRR(h) (human) (UniProt P14616)
NEK7(h) (human) = NEK7(h) (human) (UniProt Q8TDX7)
PAK2(h) (human) = PAK2(h) (human) (UniProt Q13177)
CDK3/cyclinE(h) (human) = CDK3/cyclinE(h) (human) (UniProt Q00526)
CDK3/cyclinE(h) (human), sequence (Q00526 whole entry, chain 1 of 2): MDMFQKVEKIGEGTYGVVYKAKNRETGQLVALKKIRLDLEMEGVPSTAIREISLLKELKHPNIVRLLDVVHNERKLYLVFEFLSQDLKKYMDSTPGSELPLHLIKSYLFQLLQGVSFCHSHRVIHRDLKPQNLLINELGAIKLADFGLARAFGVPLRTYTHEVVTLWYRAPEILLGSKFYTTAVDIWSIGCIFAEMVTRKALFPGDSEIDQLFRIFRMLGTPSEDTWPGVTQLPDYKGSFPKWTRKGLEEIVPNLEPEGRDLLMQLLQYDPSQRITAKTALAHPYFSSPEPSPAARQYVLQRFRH
CDK3/cyclinE(h) (human), sequence (Q00526 whole entry, chain 2 of 2): as the sequence (Q00526 whole entry, chain 1 of 2) above

PKCη(h) (human) = PKCη(h) (human) (UniProt P24723)
PKCη(h) (human), sequence (P24723 whole entry): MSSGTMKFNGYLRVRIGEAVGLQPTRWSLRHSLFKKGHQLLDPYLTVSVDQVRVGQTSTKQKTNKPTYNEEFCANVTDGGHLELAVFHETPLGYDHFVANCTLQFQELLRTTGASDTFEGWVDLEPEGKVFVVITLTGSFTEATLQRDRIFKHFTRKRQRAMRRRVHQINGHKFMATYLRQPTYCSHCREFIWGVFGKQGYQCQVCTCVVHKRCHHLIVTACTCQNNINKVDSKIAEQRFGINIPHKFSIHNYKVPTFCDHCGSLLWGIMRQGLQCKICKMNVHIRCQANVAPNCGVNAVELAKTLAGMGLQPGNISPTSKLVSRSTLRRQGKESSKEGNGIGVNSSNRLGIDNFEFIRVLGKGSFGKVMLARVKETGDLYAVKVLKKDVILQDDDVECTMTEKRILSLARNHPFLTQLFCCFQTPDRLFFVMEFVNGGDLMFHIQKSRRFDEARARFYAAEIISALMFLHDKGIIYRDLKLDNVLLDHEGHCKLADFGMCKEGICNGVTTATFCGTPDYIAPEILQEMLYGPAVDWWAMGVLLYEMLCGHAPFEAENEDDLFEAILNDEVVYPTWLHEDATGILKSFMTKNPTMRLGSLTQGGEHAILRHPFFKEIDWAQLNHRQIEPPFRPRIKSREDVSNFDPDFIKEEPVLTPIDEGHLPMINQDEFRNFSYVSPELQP

CaMKI(h) (human) = CaMKI(h) (human) (UniProt Q14012)
PKCβII(h) (human) = PKCβII(h) (human) (UniProt P05771)
PKCβII(h) (human), sequence (P05771 other isoform, or with tags, fused parts or gaps limits assumed): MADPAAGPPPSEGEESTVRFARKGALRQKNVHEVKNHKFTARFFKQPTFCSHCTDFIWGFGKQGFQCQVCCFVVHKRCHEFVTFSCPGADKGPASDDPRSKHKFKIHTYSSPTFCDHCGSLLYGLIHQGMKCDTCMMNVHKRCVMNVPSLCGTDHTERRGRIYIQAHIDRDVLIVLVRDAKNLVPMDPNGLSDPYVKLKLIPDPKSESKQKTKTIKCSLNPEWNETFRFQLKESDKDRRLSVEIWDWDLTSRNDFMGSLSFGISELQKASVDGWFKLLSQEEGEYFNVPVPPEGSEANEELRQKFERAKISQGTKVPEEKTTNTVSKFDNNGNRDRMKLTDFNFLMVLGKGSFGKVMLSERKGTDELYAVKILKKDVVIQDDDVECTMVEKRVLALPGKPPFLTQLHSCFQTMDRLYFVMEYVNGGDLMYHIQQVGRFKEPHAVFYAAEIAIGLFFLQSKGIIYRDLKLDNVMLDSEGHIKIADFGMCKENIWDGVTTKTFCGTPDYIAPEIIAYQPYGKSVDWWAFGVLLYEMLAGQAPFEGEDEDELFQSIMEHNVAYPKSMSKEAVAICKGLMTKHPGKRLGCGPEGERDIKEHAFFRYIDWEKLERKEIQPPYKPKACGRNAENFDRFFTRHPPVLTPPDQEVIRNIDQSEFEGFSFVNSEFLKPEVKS

JAK3(h) (human) = JAK3(h) (human) (UniProt P52333)
PKCα(h) (human) = PKCα(h) (human) (UniProt P17252)
NLK(h) (human) = NLK(h) (human) (UniProt Q9UBE8)
HIPK3(h) (human) = HIPK3(h) (human) (UniProt Q9H422)
HIPK3(h) (human), sequence (Q9H422 161-562 limits assumed): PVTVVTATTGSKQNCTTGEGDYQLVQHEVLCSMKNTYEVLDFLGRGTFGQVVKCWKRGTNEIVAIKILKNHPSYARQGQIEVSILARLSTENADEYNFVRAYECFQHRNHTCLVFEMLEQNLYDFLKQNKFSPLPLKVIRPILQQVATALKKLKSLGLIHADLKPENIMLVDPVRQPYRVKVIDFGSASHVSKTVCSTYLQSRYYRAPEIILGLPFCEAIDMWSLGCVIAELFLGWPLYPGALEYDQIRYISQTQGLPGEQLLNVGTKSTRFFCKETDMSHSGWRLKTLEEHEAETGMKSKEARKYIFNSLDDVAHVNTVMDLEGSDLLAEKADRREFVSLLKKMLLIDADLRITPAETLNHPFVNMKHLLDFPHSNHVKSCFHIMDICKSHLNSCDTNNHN

Fer(h) (human) = Fer(h) (human) (UniProt P16591)
cSRC(h) (human) = cSRC(h) (human) (UniProt P12931)
EphA8(h) (human) = EphA8(h) (human) (UniProt P29322)
ZAP-70(h) (human) = ZAP-70(h) (human) (UniProt P43403)
SGK(h) (human) = SGK(h) (human) (UniProt O00141)
PKCτ(h) (human) = target: PKCτ(h) (human)
Ron(h) (human) = Ron(h) (human) (UniProt Q04912)
Itk(h) (human) = Itk(h) (human) (UniProt Q08881)
LOK(h) (human) = LOK(h) (human) (UniProt O94804)
MLK1(h) (human) = MLK1(h) (human) (UniProt P80192)
MLK1(h) (human), sequence (P80192 132-413 limits assumed): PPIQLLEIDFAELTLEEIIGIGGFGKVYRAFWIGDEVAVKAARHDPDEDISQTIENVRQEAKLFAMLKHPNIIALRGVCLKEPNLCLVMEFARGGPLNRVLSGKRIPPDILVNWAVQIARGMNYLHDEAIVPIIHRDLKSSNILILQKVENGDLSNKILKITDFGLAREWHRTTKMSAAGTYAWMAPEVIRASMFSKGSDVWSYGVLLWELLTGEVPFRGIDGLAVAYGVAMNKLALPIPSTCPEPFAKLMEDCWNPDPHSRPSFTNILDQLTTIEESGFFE

CaMKIIδ(h) (human) = CaMKIIδ(h) (human) (UniProt Q13557)
SAPK2a(h) (human) = SAPK2a(h) (human) (UniProt Q16539)
SIK(h) (human) = SIK(h) (human) (UniProt P57059)
SIK(h) (human), sequence (P57059 whole entry): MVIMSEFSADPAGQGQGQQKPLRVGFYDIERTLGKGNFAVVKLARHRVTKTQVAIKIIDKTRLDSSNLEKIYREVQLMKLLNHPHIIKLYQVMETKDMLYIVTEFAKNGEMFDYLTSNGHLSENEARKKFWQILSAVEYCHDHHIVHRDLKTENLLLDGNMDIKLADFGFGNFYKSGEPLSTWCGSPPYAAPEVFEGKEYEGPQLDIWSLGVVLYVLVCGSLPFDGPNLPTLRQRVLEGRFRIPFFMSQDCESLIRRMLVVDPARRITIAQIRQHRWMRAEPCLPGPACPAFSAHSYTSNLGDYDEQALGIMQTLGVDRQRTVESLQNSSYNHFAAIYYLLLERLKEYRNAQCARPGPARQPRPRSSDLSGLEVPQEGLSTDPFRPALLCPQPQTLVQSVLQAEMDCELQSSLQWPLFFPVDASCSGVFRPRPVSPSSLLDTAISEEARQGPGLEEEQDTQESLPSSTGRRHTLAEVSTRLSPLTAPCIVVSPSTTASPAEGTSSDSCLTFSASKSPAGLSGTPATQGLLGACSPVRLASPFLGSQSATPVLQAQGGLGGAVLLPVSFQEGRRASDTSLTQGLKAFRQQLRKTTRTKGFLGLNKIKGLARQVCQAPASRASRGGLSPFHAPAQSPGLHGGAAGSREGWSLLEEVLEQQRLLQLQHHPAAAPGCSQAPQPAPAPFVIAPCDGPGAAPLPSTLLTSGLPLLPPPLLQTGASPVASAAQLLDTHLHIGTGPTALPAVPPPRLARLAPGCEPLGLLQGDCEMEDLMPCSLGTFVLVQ

BRK(h) (human) = BRK(h) (human) (UniProt Q13882)
HIPK2(h) (human) = HIPK2(h) (human) (UniProt Q9H2X6)
MRCKα(h) (human) = MRCKα(h) (human) (UniProt Q5VT25)
Aurora-B(h) (human) = Aurora-B(h) (human) (UniProt Q96GD4)
TAO1(h) (human) = TAO1(h) (human) (UniProt Q7L7X3)

Substance: MMI-0100 (peptide)
% activity (IR(h) (human)): 112%
% activity (MST2(h) (human)): 98%
% activity (ROCK-II(h) (human)): 102%
% activity (Flt3(h) (human)): 104%
% activity (TSSK2(h) (human)): 107%
% activity (Ab1(M351T)(h) (human)): 128%
% activity (EGFR(L858R)(h) (human)): 76%
% activity (GRK6(h) (human)): 131%
% activity (cKit(D816H)(h) (human)): 79%
% activity (MLCK(h) (human)): 85%
% activity (JAK2(h) (human)): 89%
% activity (PhKγ2(h) (human)): 62%
% activity (Snk(h) (human)): 94%
% activity (ROCK-I(h) (human)): 99%
% activity (MAPK2(h) (human)): 98%
% activity (PKD2(h) (human)): 84%
% activity (Met(Y1248H)(h) (human)): 88%
% activity (TSSK1(h) (human)): 99%
% activity (Ab1(Q252H)(h) (human)): 105%
% activity (VRK2(h) (human)): 112%
% activity (CDK5/p25(h) (human)): 114%
% activity (Src(T341M)(h) (human)): 98%
% activity (DAPK1(h) (human)): 97%
% activity (EphA3(h) (human)): 107%
% activity (PKCθ(h) (human)): 102%
% activity (PAK4(h) (human)): 92%
% activity (Met(M1268T)(h) (human)): 114%
% activity (Bmx(h) (human)): 62%
% activity (IRR(h) (human)): 85%
% activity (NEK7(h) (human)): 97%
% activity (PAK2(h) (human)): 71%
% activity (CDK3/cyclinE(h) (human)): 106%
% activity (PKCη(h) (human)): 105%
% activity (CaMKI(h) (human)): 13%
% activity (PKCβII(h) (human)): 102%
% activity (JAK3(h) (human)): 150%
% activity (PKCα(h) (human)): 94%
% activity (NLK(h) (human)): 100%
% activity (HIPK3(h) (human)): 105%
% activity (Fer(h) (human)): 117%
% activity (cSRC(h) (human)): 70%
% activity (EphA8(h) (human)): 181%
% activity (ZAP-70(h) (human)): 79%
% activity (SGK(h) (human)): 128%
% activity (PKCτ(h) (human)): 110%
% activity (Ron(h) (human)): 117%
% activity (Itk(h) (human)): 99%
% activity (LOK(h) (human)): 37%
% activity (MLK1(h) (human)): 77%
% activity (CaMKIIδ(h) (human)): 89%
% activity (SAPK2a(h) (human)): 110%
% activity (SIK(h) (human)): 113%
% activity (BRK(h) (human)): 70%
% activity (HIPK2(h) (human)): 98%
% activity (MRCKα(h) (human)): 98%
% activity (Aurora-B(h) (human)): 94%
% activity (TAO1(h) (human)): 99%

Substance: MMI-0200 (peptide)
% activity (IR(h) (human)): 90%
% activity (MST2(h) (human)): 104%
% activity (ROCK-II(h) (human)): 85%
% activity (Flt3(h) (human)): 99%
% activity (TSSK2(h) (human)): 91%
% activity (Ab1(M351T)(h) (human)): 119%
% activity (EGFR(L858R)(h) (human)): 120%
% activity (GRK6(h) (human)): 132%
% activity (cKit(D816H)(h) (human)): 106%
% activity (MLCK(h) (human)): 103%
% activity (JAK2(h) (human)): 131%
% activity (PhKγ2(h) (human)): 86%
% activity (Snk(h) (human)): 109%
% activity (ROCK-I(h) (human)): 117%
% activity (MAPK2(h) (human)): 105%
% activity (PKD2(h) (human)): 78%
% activity (Met(Y1248H)(h) (human)): 153%
% activity (TSSK1(h) (human)): 98%
% activity (Ab1(Q252H)(h) (human)): 107%
% activity (VRK2(h) (human)): 109%
% activity (CDK5/p25(h) (human)): 97%
% activity (Src(T341M)(h) (human)): 56%
% activity (DAPK1(h) (human)): 113%
% activity (EphA3(h) (human)): 117%
% activity (PKCθ(h) (human)): 101%
% activity (PAK4(h) (human)): 98%
% activity (Met(M1268T)(h) (human)): 143%
% activity (Bmx(h) (human)): 76%
% activity (IRR(h) (human)): 69%
% activity (NEK7(h) (human)): 96%
% activity (PAK2(h) (human)): 69%
% activity (CDK3/cyclinE(h) (human)): 104%
% activity (PKCη(h) (human)): 101%
% activity (CaMKI(h) (human)): 21%
% activity (PKCβII(h) (human)): 100%
% activity (JAK3(h) (human)): 117%
% activity (PKCα(h) (human)): 100%
% activity (NLK(h) (human)): 106%
% activity (HIPK3(h) (human)): 105%
% activity (Fer(h) (human)): 101%
% activity (cSRC(h) (human)): 32%
% activity (EphA8(h) (human)): 133%
% activity (ZAP-70(h) (human)): 58%
% activity (SGK(h) (human)): 115%
% activity (PKCτ(h) (human)): 97%
% activity (Ron(h) (human)): 120%
% activity (Itk(h) (human)): 98%
% activity (LOK(h) (human)): 67%
% activity (MLK1(h) (human)): 84%
% activity (CaMKIIδ(h) (human)): 2%
% activity (SAPK2a(h) (human)): 107%
% activity (SIK(h) (human)): 102%
% activity (BRK(h) (human)): 127%
% activity (HIPK2(h) (human)): 102%
% activity (MRCKα(h) (human)): 103%
% activity (Aurora-B(h) (human)): 166%
% activity (TAO1(h) (human)): 105%

% activity (IR(h) (human)): 95%
% activity (MST2(h) (human)): 2%
% activity (ROCK-II(h) (human)): 2%
% activity (Flt3(h) (human)): 17%
% activity (TSSK2(h) (human)): 92%
% activity (Ab1(M351T)(h) (human)): 61%
% activity (EGFR(L858R)(h) (human)): 26%
% activity (GRK6(h) (human)): 174%
% activity (cKit(D816H)(h) (human)): 194%
% activity (MLCK(h) (human)): 0%
% activity (JAK2(h) (human)): 49%
% activity (PhKγ2(h) (human)): 16%
% activity (Snk(h) (human)): 122%
% activity (ROCK-I(h) (human)): 17%
% activity (MAPK2(h) (human)): 60%
% activity (PKD2(h) (human)): 10%
% activity (Met(Y1248H)(h) (human)): 126%
% activity (TSSK1(h) (human)): 46%
% activity (Ab1(Q252H)(h) (human)): 40%
% activity (VRK2(h) (human)): 169%
% activity (CDK5/p25(h) (human)): 66%
% activity (Src(T341M)(h) (human)): 59%
% activity (DAPK1(h) (human)): 0%
% activity (EphA3(h) (human)): 33%
% activity (PKCθ(h) (human)): 62%
% activity (PAK4(h) (human)): 86%
% activity (Met(M1268T)(h) (human)): 239%
% activity (Bmx(h) (human)): 45%
% activity (IRR(h) (human)): 10%
% activity (NEK7(h) (human)): 89%
% activity (PAK2(h) (human)): 44%
% activity (CDK3/cyclinE(h) (human)): 8%
% activity (PKCη(h) (human)): 45%
% activity (CaMKI(h) (human)): -1%
% activity (PKCβII(h) (human)): 3%
% activity (JAK3(h) (human)): 95%
% activity (PKCα(h) (human)): 3%
% activity (NLK(h) (human)): 19%
% activity (HIPK3(h) (human)): 85%
% activity (Fer(h) (human)): 196%
% activity (cSRC(h) (human)): 30%
% activity (EphA8(h) (human)): 337%
% activity (ZAP-70(h) (human)): 1%
% activity (SGK(h) (human)): 2%
% activity (PKCτ(h) (human)): 7%
% activity (Ron(h) (human)): 46%
% activity (Itk(h) (human)): 7%
% activity (LOK(h) (human)): 7%
% activity (MLK1(h) (human)): 43%
% activity (CaMKIIδ(h) (human)): 1%
% activity (SAPK2a(h) (human)): 52%
% activity (SIK(h) (human)): 40%
% activity (BRK(h) (human)): 41%
% activity (HIPK2(h) (human)): 38%
% activity (MRCKα(h) (human)): 5%
% activity (Aurora-B(h) (human)): 5%
% activity (TAO1(h) (human)): 24%
Substance: MMI-0500 (peptide)

Reference: US20160200782A1
